Test results published in patent US5645817, “Granulocyte-binding antibody constructs, their preparation and use” (Behringwerke Aktiengesellschaft, dated 1997).

Target: carcinoembryonic antigen (CEA) (Homo sapiens (Human), UniProt P06731)
Assay: characterisation according to Example 2 (ELISA on CEA); told in words
Procedure: Supernatants from BHK cells, which had been transfected with the DNA constructs of the second version of the hum 250/183, were tested for their content of humMab and for the specificity of the humMab.
However, the polystyrene plates were coated with 75 μl of CEA at a concentration of 15 μg/ml. Equal volumes of different concentrations (consecutively dilutions 1:2)

binding result: binds
B1: hum 250/183 (second version of the humanized Mab BW 250/183) (antibody, V domains shown)
VH: QVQLQESGPGLVRPSQTLSLTCTVSGFSDYYMNWVRQPPGRGLEWIGFISNKPNGHTTEYSASVKGRVTMLRDTSKNQFSLRLSSVTAADTAVYYCARDKGIRWYFDVWGQGSLVTVSS
VL: DIQMTQSPSSLSASVGDRVTITCRASSSVSYMHWYQQKPGKAPKPLIYATSNLASGVPSRFSGSGSGTDFTFTISSLQPEDIATYYCQQWSSNPLTFGQGTKVEIKR
